# Experimental data reported in paper PMC11079029, “Intramolecular autoinhibition regulates the selectivity of PRPF40A tandem WW domains for proline-rich motifs” (Nature Communications, 2024).
# B1: MEPCE (protein, UniProt Q7L2J0 1-689, looked up)
# 7SK snRNA methylphosphate …: MIEMAAEKEPFLVPAPPPPLKDESGGGGGPTVPPHQEAASGELRGGTERGPGRCAPSAGSPAAAVGRESPGAAATSSSGPQAQQHRGGGPQAQSHGEARLSDPPGRAAPPDVGEERRGGGGTELGPPAPPRPRNGYQPHRPPGGGGGKRRNSCNVGGGGGGFKHPAFKRRRRVNSDCDSVLPSNFLLGGNIFDPLNLNSLLDEEVSRTLNAETPKSSPLPAKGRDPVEILIPKDITDPLSLNTCTDEGHVVLASPLKTGRKRHRHRGQHHQQQQAAGGSESHPVPPTAPLTPLLHGEGASQQPRHRGQNRDAPQPYELNTAINCRDEVVSPLPSALQGPSGSLSAPPAASVISAPPSSSSRHRKRRRTSSKSEAGARGGGQGSKEKGRGSWGGRHHHHHPLPAAGFKKQQRKFQYGNYCKYYGYRNPSCEDGRLRVLKPEWFRGRDVLDLGCNVGHLTLSIACKWGPSRMVGLDIDSRLIHSARQNIRHYLSEELRLPPQTLEGDPGAEGEEGTTTVRKRSCFPASLTASRGPIAAPQVPLDGADTSVFPNNVVFVTGNYVLDRDDLVEAQTPEYDVVLCLSLTKWVHLNWGDEGLKRMFRRIYRHLRPGGILVLEPQPWSSYGKRKTLTETIYKNYYRIQLKPEQFSSYLTSPDVGFSSYELVATPHNTSKGFQRPVYLFHKARSPSH
# B2: HNRNPUL1 (protein, UniProt Q9BUJ2 1-856, looked up)
# Heterogeneous nuclear …: MDVRRLKVNELREELQRRGLDTRGLKAELAERLQAALEAEEPDDERELDADDEPGRPGHINEEVETEGGSELEGTAQPPPPGLQPHAEPGGYSGPDGHYAMDNITRQNQFYDTQVIKQENESGYERRPLEMEQQQAYRPEMKTEMKQGAPTSFLPPEASQLKPDRQQFQSRKRPYEENRGRGYFEHREDRRGRSPQPPAEEDEDDFDDTLVAIDTYNCDLHFKVARDRSSGYPLTIEGFAYLWSGARASYGVRRGRVCFEMKINEEISVKHLPSTEPDPHVVRIGWSLDSCSTQLGEEPFSYGYGGTGKKSTNSRFENYGDKFAENDVIGCFADFECGNDVELSFTKNGKWMGIAFRIQKEALGGQALYPHVLVKNCAVEFNFGQRAEPYCSVLPGFTFIQHLPLSERIRGTVGPKSKAECEILMMVGLPAAGKTTWAIKHAASNPSKKYNILGTNAIMDKMRVMGLRRQRNYAGRWDVLIQQATQCLNRLIQIAARKKRNYILDQTNVYGSAQRRKMRPFEGFQRKAIVICPTDEDLKDRTIKRTDEEGKDVPDHAVLEMKANFTLPDVGDFLDEVLFIELQREEADKLVRQYNEEGRKAGPPPEKRFDNRGGGGFRGRGGGGGFQRYENRGPPGGNRGGFQNRGGGSGGGGNYRGGFNRSGGGGYSQNRWGNNNRDNNNSNNRGSYNRAPQQQPPPQQPPPPQPPPQQPPPPPSYSPARNPPGASTYNKNSNIPGSSANTSTPTVSSYSPPQPSYSQPPYNQGGYSQGYTAPPPPPPPPPAYNYGSYGGYNPAPYTPPPPPTAQTYPQPSYNQYQQYAQQWNQYYQNQGQWPPYYGNYDYGSYSGNTQGGTSTQ
# B3: ATXN10 (protein, UniProt Q9UBB4 1-475, looked up)
# Ataxin-10: MAAPRPPPARLSGVMVPAPIQDLEALRALTALFKEQRNRETAPRTIFQRVLDILKKSSHAVELACRDPSQVENLASSLQLITECFRCLRNACIECSVNQNSIRNLDTIGVAVDLILLFRELRVEQESLLTAFRCGLQFLGNIASRNEDSQSIVWVHAFPELFLSCLNHPDKKIVAYSSMILFTSLNHERMKELEENLNIAIDVIDAYQKHPESEWPFLIITDLFLKSPELVQAMFPKLNNQERVTLLDLMIAKITSDEPLTKDDIPVFLRHAELIASTFVDQCKTVLKLASEEPPDDEEALATIRLLDVLCEMTVNTELLGYLQVFPGLLERVIDLLRVIHVAGKETTNIFSNCGCVRAEGDISNVANGFKSHLIRLIGNLCYKNKDNQDKVNELDGIPLILDNCNISDSNPFLTQWVIYAIRNLTEDNSQNQDLIAKMEEQGLADASLLKKVGFEVEKKGEKLILKSTRDTPKP
# System: GFP-tagged PRPF40A-Nter-MUT
# Assay: SILAC GFP-immunoprecipitation with quantitative mass spectrometry, mutant construct
# Format: binding, human (Hela cells)
# Conditions: quantitative MS, Hela cells, protein by gene name
# Method: The PRPF40A N-terminal region (isoform 2, residues 1-221) was PCR-amplified from RPE1 cDNA (ATCC, Cat# CRL-4000) cDNA. The sequence was amplified in two fragments and both fragments were combined by overhang. All PCRs were carried out using Q5 Polymerase (NEB) according to manufacturer’s protocol. The resulting PRPF40A N-terminal region was cloned into a GFP-expressing pcDNA5 vector (see pcDNA5 GFP vector in ref. [28]) using Q5 Site-Directed Mutagenesis Kit (NEB). Nter-MUT, containing the PPVP/PALPP motifs changed to AAAA/AAAAA, was obtained by mutating the N-ter-WW12-containing plasmid with Q5 site-directed mutagenesis. Plasmids were transformed into DH5alpha chemically competent cells. After culturing, DNA isolation was performed with either ZymoPURE Plasmid Miniprep Kit (Zymo Research) or QIAGEN Plasmid Plus Midi Kit (Qiagen). The sequence was confirmed by Sanger Sequencing (GATC Eurofins). All used oligonucleotides are shown in Supplementary Table 6.
# Hela cells (ATCC, Cat# CCL-2, RRID:CVCL_0030) were cultured in DMEM SILAC medium (Thermo Fisher) supplemented with 10% filtered FBS (Sigma-Aldrich) and 1% penicillin-streptomycin (Thermo-Fisher). The SILAC medium contains either light (Arg0, Lys0), medium (Arg6, Lys4) or heavy (Arg10, Lys8) isotopes (Cambridge Isotopes Laboratories). Hela cells were cultivated for 14 days in SILAC medium to assure sufficient isotope incorporation. For transfection, 7 × 10^6 Hela cells were seeded in a 15 cm culture dish in 20 ml of respective SILAC medium and grown for 24 h. The cells were then transfected with 20 µg of plasmids expressing either GFP (Control), GFP-tagged N-ext-WW12 or GFP-tagged-N-ext-WW12-MUT utilizing 64 µl FuGENE (Promega) (ratio 1:3.2), according to manufacturer’s protocol.
# 24 h post-transfection, cells were washed twice in ice-cold PBS and harvested in 1 ml mRIPA buffer (50 mM Tris, 150 mM NaCl, 1 mM EDTA, 1% NP-40, 0.1% Na-deoxycholate), supplemented with 2 µl Turbo-DNase (Thermo Fisher) and 3 µl protease-inhibitor cocktail cOmplete (Sigma-Aldrich). Cell lysates were cleared by centrifugation at 16,000 × g, 4 °C, 15 min and concentration was measured using Pierce BCA Protein Assay kit (Thermo Scientific). The expressed constructs were pulled down by incubating 2.5 mg of lysate with 20 μl GFP-nanobody agarose beads (ChromoTek, GTA-20) for 1 h at 4 °C under constant agitation. Subsequently, beads were washed three times with mRIPA buffer without supplements, then eluted in 1X NuPAGE LDS sample buffer (Thermo Scientific). To detach the proteins from the beads, the eluate was heated to 70 °C for 10 min To evaluate the success of the immunoprecipitation, input (1%) and IP samples were analyzed on a NuPAGE 4–12% Bis-Tris-Acrylamide gel (Thermo Fisher) using NuPAGE MOPS SDS running buffer (Thermo Fisher). Proteins were stained using Sypro Ruby protein gel stain (Thermo Fisher) according to manufacturer’s protocol.
# The eluted proteins of three SILAC states (light, medium, heavy) were combined. The proteins were then reduced in DTT, alkylated in iodoacetamide, and purified using the SP3 paramagnetic bead approach. This was followed by overnight enzymatic digestion using trypsin (1 µg per sample) in 50 mM ammonium bicarbonate at 37 °C. The peptide solution was then purified by solid phase extraction in C18 StageTips[99].
# Peptides were separated by online reverse phase liquid chromatography using the EASY-nLC 1000 system (Thermo Scientific) in a 30-cm analytical column (inner diameter: 75 μm; heated at 50 °C) packed in-house with ReproSil-Pur 120 C18-AQ 1.9-μm beads (Dr. Maisch GmbH). The gradient separation was performed through a 105-min non-linear gradient of 1.6–32% acetonitrile with 0.1% formic acid at a nanoflow rate of 225 nl/min. The eluted peptides were sprayed directly by electrospray ionization into a Q Exactive Plus Orbitrap mass spectrometer (Thermo Scientific). […]
row,Molecule,"Immunoprecipitation enrichment MUT vs WT, log2 FC"
1,B1,1.321
2,B2,1.072
3,B3,1.57
